Results reported in PMC3379994 (2012).

Each binder was assayed against His-tagged Sam68 (Src-associated in mitosis, 68 kDa) (human (cDNA from HEK293T cells), UniProt Q07666 1-443) (assay: ELISA).
Sequence of His-tagged Sam68 (Src-associated in mitosis, 68 kDa) (Q07666 whole entry): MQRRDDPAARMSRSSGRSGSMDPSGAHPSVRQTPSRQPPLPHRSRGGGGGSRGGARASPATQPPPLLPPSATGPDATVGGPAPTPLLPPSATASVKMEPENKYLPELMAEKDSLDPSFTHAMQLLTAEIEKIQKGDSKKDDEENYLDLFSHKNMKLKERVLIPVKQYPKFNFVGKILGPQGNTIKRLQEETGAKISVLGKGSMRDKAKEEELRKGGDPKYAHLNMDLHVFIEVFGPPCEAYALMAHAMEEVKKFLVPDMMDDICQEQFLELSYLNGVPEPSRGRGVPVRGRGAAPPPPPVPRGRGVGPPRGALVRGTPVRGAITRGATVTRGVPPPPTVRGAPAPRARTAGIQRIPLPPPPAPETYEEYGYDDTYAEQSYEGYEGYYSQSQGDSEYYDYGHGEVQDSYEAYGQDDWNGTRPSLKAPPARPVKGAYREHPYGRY

Row | Binder | Kd [nM]
1 | SH3 domain from Yes, displayed on M13 phage (domain or fragment) not shown | 5.5
2 | SH3 domain #2 from Nck1, displayed on M13 phage (domain or fragment) DLNMPAYVKFNYMAEREDELSLIKGTKVIVMEKCSDGWWRGSYNGQVGWFPSNYVTEEGD | 31
3 | SH3 domain from p85α, displayed on M13 phage (domain or fragment) AEGYQYRALYDYKKEREEDIDLHLGDILTVNKGSLVALGFSDGQEARPEEIGWLNGYNETTGERGDFPGTYVEYIGR | 13
4 | SH3 domain #3 from Intersectin 2, displayed on M13 phage (domain or fragment) SVGEEYIALYPYSSVEPGDLTFTEGEEILVTQKDGEWWTGSIGDRSGIFPSNYVKPKDQ | 59
5 | SH3 domain from Hck, displayed on M13 phage (domain or fragment) not shown | 31
6 | SH3 domain from Fyn, displayed on M13 phage (domain or fragment) not shown | 41
7 | SH3 domain from Osteoclast stimulating factor 1, displayed on M13 phage (domain or fragment) GQVKVFRALYTFEPRTPDELYFEEGDIIYITDMSDTNWWKGTSKGRTGLIPSNYVAEQAE | 22
8 | SH3 domain from Lyn, displayed on M13 phage (domain or fragment) EQGDIVVALYPYDGIHPDDLSFKKGEKMKVLEEHGEWWKAKSLLTKKEGFIPSNYVAKLNT | 7.9
